We go through one substance from patent publication US20210395344A1.

In experiment [1] the target is SARS-CoV-2 Spike Glycoprotein S1 (subunit 1) (SARS-CoV-2) (UniProt P0DTC2). The experiment is described as follows: epitope binning; competitor Acro mAb.
For experiment [2] the target is unchanged. The experiment is described as follows: epitope binning; competitor 2-8.
Experiment [3] has the same target. As to the kind of experiment: epitope binning; competitor 2-2.
Experiment [4] has the same target. The experiment is described as follows: epitope binning; competitor 1-16.
Experiment [5] shares this target. As to the kind of experiment: epitope binning; competitor 2-5.
Experiment [6] has the same target. The experiment is described as follows: epitope binning; competitor 2-6.
Experiment [7] has the same target. The experiment is described as follows: epitope binning; competitor Abcam CR3022.
Experiment [8] shares this target. The experiment is described as follows: epitope binning; competitor 1-32.
Experiment [9] shares this target. The experiment is described as follows: epitope binning; competitor 2-11.
Experiment [10] shares this target. As to the kind of experiment: epitope binning; competitor 1-35.

Take Abcam CR3022 (antibody): the epitope binning score in [1] is 2; in experiment [2], 0; in experiment [3] it was 0; in experiment [4] it was 2; in experiment [5], 0; in [6] it was 2. For the same substance, the epitope binning score was determined as 0 in experiment [7], 1 in [8], 1 in experiment [9] and 2 in [10].
